Laboratory results from patent US20160031999A1 (CSL, published 2016).
Residue numbers refer to the chain shown, from its start.

T1: polypeptide of SEQ ID NO: 85 (amino acids 23 to 318 of human IL-11Rα, serine at position 248, 8×HIS tag) (human, UniProt Q14626 23-318)
T1 construct: also called WT D1/2; truncated hIL-11R
T1 sequence: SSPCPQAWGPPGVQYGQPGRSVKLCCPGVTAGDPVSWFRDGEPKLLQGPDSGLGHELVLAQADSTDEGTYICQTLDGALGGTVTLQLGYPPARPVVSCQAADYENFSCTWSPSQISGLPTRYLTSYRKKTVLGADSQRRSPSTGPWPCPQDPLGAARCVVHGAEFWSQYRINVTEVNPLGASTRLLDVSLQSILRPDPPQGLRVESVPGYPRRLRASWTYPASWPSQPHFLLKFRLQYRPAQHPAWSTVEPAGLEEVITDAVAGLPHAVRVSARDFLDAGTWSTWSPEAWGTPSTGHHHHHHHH

T2: polypeptide of SEQ ID NO: 3 (amino acids 23 to 363 of human IL-11Rα, serine at position 248, 8×HIS tag) (human, UniProt Q14626 23-363)
T2 construct: also called WT F/L
T2 sequence: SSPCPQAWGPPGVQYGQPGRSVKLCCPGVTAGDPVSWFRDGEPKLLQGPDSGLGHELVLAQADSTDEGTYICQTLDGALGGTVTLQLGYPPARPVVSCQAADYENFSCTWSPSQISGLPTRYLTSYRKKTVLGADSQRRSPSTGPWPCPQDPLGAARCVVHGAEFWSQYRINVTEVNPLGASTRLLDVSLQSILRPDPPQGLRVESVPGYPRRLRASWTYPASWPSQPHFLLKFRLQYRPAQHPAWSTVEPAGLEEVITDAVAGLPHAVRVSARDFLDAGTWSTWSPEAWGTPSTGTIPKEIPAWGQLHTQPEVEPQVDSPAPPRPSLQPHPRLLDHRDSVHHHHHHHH

T3: L101S mutant of soluble human IL-11Rα (SEQ ID NO: 98) (human, UniProt Q14626 23-318)
T3 sequence: T1 sequence with L79S, S226C

T4: A178S mutant of soluble human IL-11Rα (SEQ ID NO: 99) (human, UniProt Q14626 23-318)
T4 sequence: T1 sequence with A156S, S226C

T5: K66R mutant of soluble human IL-11Rα (SEQ ID NO: 96) (human, UniProt Q14626 23-318)
T5 construct: also called K44R
T5 sequence: T1 sequence with K44R, S226C

T6: V117E mutant of soluble human IL-11Rα (SEQ ID NO: 95) (human, UniProt Q14626 23-318)
T6 construct: also called V95E
T6 sequence: T1 sequence with V95E, S226C

B1: antibody 8E4 (antibody, human IgG4 S228P, lambda, V domains shown)
VH: EVQLLESGGGLVQPGGSLRLSCAASGFTFSWYFMGWVRQAPGKGLEWVSYIYPSGGSTGYADSVKGRFTISRDNSKNTLYLQMHSLRAEDTAVYYCARDEGYCSSTSCYFDAFDIWGQGTMVTVSS
VL: QSALTQPPSASGSPGQSVAISCTGTSSDVGGYNFVSWYQQHPGKAPKLLIYEVTKRPSGVPDRFSGSKAGNTASLTVSGLQAEDEADYYCSSYGGSNNAGVFGTGTKVTVLG
B2: antibody 8D10 (antibody, human IgG4 S228P, kappa, V domains shown)
VH: EVQLLESGGGLVQPGGSLRLSCAASGFTFSRYMMGWVRQAPGKGLEWVSSIVPSGGITIYADSVKGRFTISRDNSKNTLYLQMNSLRAEDTAVYYCARDHMGIVATDWGQGTLVTVSS
VL: DIQMTQSPSSLSASVGDRVTITCQASQDITNYLNWYLHKPGKAPKLLIYDASNLQTGVPSRFSGSGSGTDFTFTITSLQPEDFGTYYCQQYDTLHPSFGPGTTVDIKR

How the values were obtained:
[1] = target: T1, polypeptide of SEQ ID NO: 85 (amino …); assay: Biacore, antibody captured on anti-human IgG Fc, receptor injected; mean ± SE
Procedure: (§1) Various point mutants of soluble forms of IL-11R were produced in which amino acids from mIL-11 were introduced into a soluble form of hIL-11 (SEQ ID NO: 85) (see Table 5 for positions of mutations relative to SEQ ID NO: 1 and for reference to the SEQ ID NO: of each polypeptide) and the binding of antibodies to those polypeptides or to polypeptides of SEQ ID NO: 3 or SEQ ID NO: 85 was determined using Biacore analysis or FACS.
(§2) Anti human IgG Fc specific antibody was chemically immobilized on a CM5 chip to ˜9000 RU. Antibodies were captured at about 0.3-1 μg/ml for 120 seconds on 2 spots in each flow cell. Adjacent spots consisting of only anti human IgG were used as a reference. IL-11 receptors were injected over the captured antibodies and reference spots at 40, 10, 5 and 2.5 nM in duplicate. Blank injections of buffer only were also performed in duplicate. Injection was performed for 3 minutes and dissociation monitored for a further 5 minutes.

[2] = target: T2, polypeptide of SEQ ID NO: 3 (amino …); assay: Biacore, antibody captured on anti-human IgG Fc, receptor injected; mean ± SE, N = 3
Procedure: as §1, §2

[3] = target: T3, L101S mutant of soluble human IL-11Rα …; assay: Biacore, antibody captured on anti-human IgG Fc, receptor injected; mean ± SE, N = 4
Procedure: as §1, §2

[4] = target: T4, A178S mutant of soluble human IL-11Rα …; assay: as above
Procedure: as §1, §2

[5] = target: T5, K66R mutant of soluble human IL-11Rα …; assay: Biacore
Procedure: as §2
The K66R mutation led to a decrease in KD of just over twofold when compared to WT D1/2 (SEQ ID NO: 85) for antibodies 8E2 and 8D10, indicating some involvement of this residue in antibody binding.

[6] = target: T6, V117E mutant of soluble human IL-11Rα …; assay: Biacore, antibody captured; * indicates undetectable binding
Procedure: as §1, §2

| Binder | Kd [1] [nM] | Kd [2] [nM] | Kd [3] [nM] | Kd [4] [nM] | fold change in KD compared to WT D1/2 (SEQ ID NO: 85) [5] [fold] | binding result [6] |
| --- | --- | --- | --- | --- | --- | --- |
| B1 | 2.78 | 4 | 2.98 | 2.63 |  |  |
| B2 | 0.58 | 1 | 0.7 | 0.6 | > 2 | no binding |
